# Patent publication US20220064275A1 (SCHOLAR ROCK, published 2022)
# Changes are numbered by the printed parent chain.
# B1: Ab4 (antibody, IgG4, V domains shown)
# VH: EVQLVESGGGLVQPGGSLRLSCAASGFTFSSYSMNWVRQAPGKGLEWVSYISSSSSTIYYADSVKGRFTISRDNAKNSLYLQMNSLRAEDTAVYYCARGVLDYGDMLDPWGQGTLVTVSS
# VL: DIQMTQSPSSLSASVGDRVTITCQASQDITNYLNWYQQKPGKAPKLLIYDASNLETGVPSRFSGSGSGTDFTFTISSLQPEDIATYYCQQADNHPPWTFGGGTKVEIK
# notes: also called parental lead antibody of Ab6
# B2: Ab11 (antibody, IgG4, V domains shown)
# VH: EVQLLESGGGLVQPGGSLRLSCAASGFTFRNYAMSWVRQAPGKGLEWVSSISGSGGATYYADSVKGRFTISRDNSKNTLYLQMNSLRAEDTAVYYCARVSSGHWDFDYWGQGTLVTVSS
# VL: DIQLTQSPSSLSASVGDRVTITCRASQSISSYLNWYQQKPGKAPKLLIYAASNLQSGVPSRFSGSGSGTDFTLTISSLQPEDFATYYCQQTYTVPLTFGGGTKVEIK
# B3: Ab12 (antibody, IgG4, V domains shown)
# VH: B2 VH with E1Q, L5V, L11V, G16R, R30S, N31D, S35V, S50A, G56F, A57T
# VL: B2 VL
# B4: Ab19 (antibody, IgG4, V domains shown)
# VH: QVQLVESGGGVVQPGRSLRLSCAASGFTFSSFAMTWVRQAPGKGLEWVSAISGSGAATYFADSVKGRFTISRDNSKNTLYLQMNSLRAEDTAVYYCARVSSGHWDFDEWGQGTLVTVSS
# VL: B2 VL
# B5: Ab20 (antibody, IgG4, V domains shown)
# VH: B2 VH with R30S, N31A, S35T, S50A, A57V, F106Y
# VL: B2 VL
# B6: Ab2 (antibody, human IgG4 S228P, kappa, V domains shown)
# VH: B2 VH with R30A, N31D, S35T, S50A, G56A, Y60F
# VL: DIQLTQSPSSLSASVGDRVTITCRASQSISSYLNWYQQKPGKAPKLLIYAASNLQSGVPSRFSGSGSGTDFTLTISSLQPEDFATYYCQQTYTVPLTFGGGTKVEIKR
# B7: Ab35 (antibody, IgG4, V domains shown)
# VH: B2 VH with G102Y, H103L
# VL: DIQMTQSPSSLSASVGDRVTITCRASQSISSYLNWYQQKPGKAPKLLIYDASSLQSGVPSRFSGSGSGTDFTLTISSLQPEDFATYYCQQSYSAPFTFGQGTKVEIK
# B8: Ab6 Fab (Fab, V domains shown)
# VH: B1 VH with A23T, Y32F, N35D, S53P, S55A, S56D, S78T, D108M
# VL: B1 VL
# notes: Fab of Ab6
# B9: Ab2 Fab (Fab, V domains shown)
# VH: B2 VH with R30A, N31D, S35T, S50A, G56A, Y60F
# VL: B2 VL
# notes: Fab of Ab2; C-terminally 6x-His tagged in the crystallography work
# Molecular target: T1, human LTBP3-proTGFβ1 complex (human, UniProt Q9NS15 866-1039)
# T1 construct: range 866-1039; also called hLTBP3-proTGFβ1; hLTBP3
# Experiment: MSD-SET, solution equilibrium titration
# Protocol: (§1) MSD-SET assays were performed to measure affinities of the antibodies at equilibrium. Briefly, each test antibody was diluted 3-5 fold and samples were mixed with biotinylated antigen in a 48-well dish. The SET samples were equilibrated for 20-24 hours at room temperature. Meanwhile, a capture plate was coated with IgG (20 nM) and incubated overnight at 4° C. or 30 minutes at room temperature, followed by a blocking step with 5% BSA. After the capture plate was washed three times, SET samples were added and incubated for 150 seconds. The plate was washed once to remove unbound complexes. 250 ng/ml SA-Sulfotag was added then washed 3 times. 2× Read Buffer was added, and signals from the labeled bound complexes were read with the use of QuickPlex™ SQ 120 instrument.
# T1 sequence (Q9NS15 866-1039 limits assumed, chain 1 of 2): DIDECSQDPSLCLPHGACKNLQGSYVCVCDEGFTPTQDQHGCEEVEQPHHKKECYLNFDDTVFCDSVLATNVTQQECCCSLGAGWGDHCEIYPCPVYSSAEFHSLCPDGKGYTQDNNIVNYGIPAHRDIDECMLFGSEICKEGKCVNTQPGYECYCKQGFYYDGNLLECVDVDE
# T1 sequence (chain, as listed by the source limits assumed, chain 2 of 2): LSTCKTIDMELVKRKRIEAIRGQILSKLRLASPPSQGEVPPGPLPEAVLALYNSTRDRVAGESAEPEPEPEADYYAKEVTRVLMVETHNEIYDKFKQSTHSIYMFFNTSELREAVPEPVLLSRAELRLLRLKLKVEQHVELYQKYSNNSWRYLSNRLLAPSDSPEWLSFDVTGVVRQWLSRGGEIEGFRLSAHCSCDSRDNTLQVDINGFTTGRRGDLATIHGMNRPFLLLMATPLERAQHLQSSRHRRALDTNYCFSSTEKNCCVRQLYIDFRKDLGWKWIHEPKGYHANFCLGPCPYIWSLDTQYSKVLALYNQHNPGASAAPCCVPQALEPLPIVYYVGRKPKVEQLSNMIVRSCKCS
row,Binder,Kd [nM]
1,B1,5.5
2,B2,1.2
3,B3,0.66
4,B4,2.7
5,B5,0.18
6,B6,0.171
7,B7,0.26

# Molecular target: T2, human GARP-proTGFβ1 complex (human, UniProt Q14392 20-627; P01137 30-390)
# T2 construct: also called hGARP-proTGFβ1; hGARP
# Experiment: MSD-SET, solution equilibrium titration
# Protocol: as §1
# T2 sequence (Q14392 20-627, chain 1 of 2): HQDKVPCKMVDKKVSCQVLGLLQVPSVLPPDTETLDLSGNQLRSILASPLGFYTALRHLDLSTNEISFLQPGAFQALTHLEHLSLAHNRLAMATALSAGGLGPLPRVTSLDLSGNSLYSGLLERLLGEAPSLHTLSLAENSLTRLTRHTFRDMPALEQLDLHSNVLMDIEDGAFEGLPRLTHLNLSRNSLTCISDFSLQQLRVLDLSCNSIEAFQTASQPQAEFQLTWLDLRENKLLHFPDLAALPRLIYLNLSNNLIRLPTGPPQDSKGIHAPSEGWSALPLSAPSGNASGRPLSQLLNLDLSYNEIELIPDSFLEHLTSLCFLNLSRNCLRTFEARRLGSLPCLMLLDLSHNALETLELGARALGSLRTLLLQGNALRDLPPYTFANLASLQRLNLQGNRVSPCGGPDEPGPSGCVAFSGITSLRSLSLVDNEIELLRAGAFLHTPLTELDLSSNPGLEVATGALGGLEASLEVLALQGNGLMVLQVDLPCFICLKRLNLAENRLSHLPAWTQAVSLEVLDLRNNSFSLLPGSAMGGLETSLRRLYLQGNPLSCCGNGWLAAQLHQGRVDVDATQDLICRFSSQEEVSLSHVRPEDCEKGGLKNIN
# T2 sequence (P01137 30-390, chain 2 of 2): as the sequence (chain, as listed by the source limits assumed, chain 2 of 2) above
row,Binder,Kd [nM]
1,B1,2.5
2,B2,3
3,B3,1.7
4,B4,3.8
5,B5,1.1
6,B6,1.4
7,B7,1.1

# Molecular target: T3, human LTBP1-proTGFβ1 complex (human, UniProt Q14766 873-1507)
# T3 construct: range 873-1507; biotinylated in Octet and MSD-SET; also called hLTBP1-proTGFβ1; hLTBP1
# Experiment: MSD-SET, solution equilibrium titration
# Protocol: as §1
# T3 sequence (Q14766 873-1507 limits assumed, chain 1 of 2): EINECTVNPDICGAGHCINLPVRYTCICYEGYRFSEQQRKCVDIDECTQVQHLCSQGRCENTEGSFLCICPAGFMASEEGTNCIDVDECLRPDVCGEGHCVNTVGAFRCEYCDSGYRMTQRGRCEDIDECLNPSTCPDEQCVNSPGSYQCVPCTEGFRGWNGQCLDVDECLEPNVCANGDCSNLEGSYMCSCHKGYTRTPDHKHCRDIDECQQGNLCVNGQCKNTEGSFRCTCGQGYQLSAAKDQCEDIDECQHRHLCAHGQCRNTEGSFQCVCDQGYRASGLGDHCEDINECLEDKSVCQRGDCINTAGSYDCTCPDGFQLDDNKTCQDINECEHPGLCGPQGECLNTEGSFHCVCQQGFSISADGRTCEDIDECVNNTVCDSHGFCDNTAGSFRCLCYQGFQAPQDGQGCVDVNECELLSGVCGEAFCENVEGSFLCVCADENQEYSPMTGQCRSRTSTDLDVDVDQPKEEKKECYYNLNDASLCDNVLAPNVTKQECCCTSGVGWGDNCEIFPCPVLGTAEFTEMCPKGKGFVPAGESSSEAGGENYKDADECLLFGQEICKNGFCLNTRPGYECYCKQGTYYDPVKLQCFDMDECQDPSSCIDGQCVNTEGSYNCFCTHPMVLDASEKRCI
# T3 sequence (chain, as listed by the source limits assumed, chain 2 of 2): as the sequence (chain, as listed by the source limits assumed, chain 2 of 2) above
row,Binder,Kd [nM]
1,B1,4.6
2,B2,1.2
3,B3,0.78
4,B4,2.1
5,B5,0.22
6,B6,0.36
7,B7,0.27

# Molecular target: T4, human LRRC33-proTGFβ1 complex (human, UniProt Q86YC3 19-650; P01137 30-390)
# T4 construct: also called hLRRC33-proTGFβ1; hLRRC33
# Experiment: MSD-SET, solution equilibrium titration
# Protocol: as §1
# T4 sequence (Q86YC3 other isoform, or with tags, fused parts or gaps limits assumed, chain 1 of 2): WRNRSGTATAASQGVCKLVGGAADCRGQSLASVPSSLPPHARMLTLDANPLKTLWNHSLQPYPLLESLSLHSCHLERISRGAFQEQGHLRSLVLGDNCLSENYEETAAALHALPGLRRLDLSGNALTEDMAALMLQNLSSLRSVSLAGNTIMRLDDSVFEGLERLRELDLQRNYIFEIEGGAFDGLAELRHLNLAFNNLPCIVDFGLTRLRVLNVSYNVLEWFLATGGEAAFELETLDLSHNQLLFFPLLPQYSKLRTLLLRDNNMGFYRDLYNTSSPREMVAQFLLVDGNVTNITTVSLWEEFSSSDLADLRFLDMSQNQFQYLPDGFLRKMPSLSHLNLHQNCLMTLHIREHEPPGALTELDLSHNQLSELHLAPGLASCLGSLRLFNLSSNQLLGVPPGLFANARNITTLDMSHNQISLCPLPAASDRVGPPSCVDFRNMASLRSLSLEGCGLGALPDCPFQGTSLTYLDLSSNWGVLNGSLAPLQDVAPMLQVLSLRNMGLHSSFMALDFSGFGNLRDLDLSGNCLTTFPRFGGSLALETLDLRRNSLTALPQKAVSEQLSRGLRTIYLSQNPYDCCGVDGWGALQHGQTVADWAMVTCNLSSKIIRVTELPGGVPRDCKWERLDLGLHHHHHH
# T4 sequence (P01137 30-390 limits assumed, chain 2 of 2): as the sequence (chain, as listed by the source limits assumed, chain 2 of 2) above
row,Binder,Kd [nM]
1,B1,2.1
2,B2,6.3
3,B3,3.2
4,B4,5.7
5,B5,1.6
6,B6,3.2
7,B7,1.1

# Molecular target: T5, murine GARP-proTGFβ1 complex (mouse, UniProt G3XA59 18-628; P04202 30-390)
# T5 construct: Soluble murine complex; also called mGARP-proTGFβ1
# Experiment: BLI screen of human and murine LLCs
row,Binder,binding result
1,B1,binds

# Molecular target: T6, human proTGFβ1 C4S (human, UniProt P01137 30-390)
# T6 construct: Small latent complex without presenting molecule; the cysteine that links to presenting molecules is changed to serine; also called small latent complex proTGFβ1 C4S; latent TGFβ1
# Experiment: HDX-MS
# Protocol: In the non-deuterated experiments, each sample was mixed with sample buffer (1:15, v/v) at room temperature, then mixed with 1:1 (v/v) quenching buffer (100 mM sodium phosphate, 4 M guanidine HCl, 0.5 M TCEP) at 0° C. Quenched samples were immediately injected into a nanoACQUITY UPLC™ system with HDX technology (Waters Corp., Milford, Mass., USA) for on-column pepsin digestion. The eluent was directed into a SYNAPT® G2 HDMS mass spectrometer (Waters Corp., Milford, Mass., USA) for analysis in MSE mode. For H/D exchange experiments, each sample was mixed with labeling buffer (20 mM HEPES, 150 mM NaCl in deuterium oxide, pD 7.5) (1:15, v/v) to start the labeling reactions at 25° C. Five aliquots of each sample were labeled at various time intervals: 10 s, 1 min, 10 min, 1 h, and 2 h. At the end of each labeling time point, the reaction was quenched by adding 1:1 (v/v) quenching buffer, and the quenched samples were injected into the Waters H/DX-MS system for analysis. Between each sample run, a clean blank was run by injecting pepsin wash buffer (1.5 M guanidine HCl, 4% acetonitrile, 0.8% formic acid) into the H/DX-MS system.
# In HDX-MS, the regions of an antigen that are tightly bound by an antibody are protected from proton exchange, due to protein-protein interaction, while regions that are exposed to solvent can readily undergo proton exchange. […]
row,Binder,binding result
1,B8,binds

# Molecular target: T7, human proTGFβ1 C4S/R249A (human, UniProt P01137 30-390)
# T7 construct: Expressed with kifunensine and treated with endoglycosidase H; also called uncleavable human proTGFβ1 variant
# Experiment: X-ray crystal structure of the ternary complex
# Source text: In this work, an uncleavable human proTGFβ1 C4S/R249A variant was used that spans residues 30-390 based on the full-length sequence of human proTGFβ1 (Uniprot ID P01137). The numbering system that will be used for the rest of this document will designate position 1 as the first amino acid residue after the removal of the signal sequence for proTGFβ isoforms. The C4S mutation renders proTGFβ1 not capable of covalent crosslinking to any known presenting molecules, e.g. LTBPs and GARP, while the R249A renders proTGFβ1 resistant to proprotein convertase/furin protease cleavage, thus maintaining proTGFβ1 in its uncleaved, proprotein form. […] The AbX Fab in this context was used as an auxiliary protein, which acts as a crystallization chaperone to increase the probability of obtaining protein crystals.
# Crystallization experiments were performed at room temperature in a sitting drop format. […] X-ray diffraction data were collected at the SER-CAT beamline 22-ID at the Advanced Photon Source (APS) at the Argonne National Laboratory (ANL) using a Dectris Eiger 16M detector. The diffraction images were processed with X-ray Detector Software (XDS) in space group C2221 with an asymmetric unit containing one half of a 2:2:2 complex. The structure of the ternary complex was solved by molecular replacement using Phaser.
row,Binder,binding result
1,B9,binds

# Molecular target: T6, human proTGFβ1 C4S
# Experiment: BLI (Octet Red384), proTGFβ1 C4S coupled to AR2G sensors, dissociation at pH 5; dissociation at pH 5
# Protocol: (§2) The antibodies were tested against sensor-immobilized human proTGFβ1 C4S, which contains a mutation in the prodomain to facilitate proTGFβ1 expression without disulfide linkage to a presentation molecule. Polystyrene 96-well black half area plates (Greiner Bio-One) and amine reactive second-generation (AR2G) biosensors (FortéBio) were utilized for this experiment.
# (§3) AR2G biosensors were first allowed to hydrate in water offline for at least 10 minutes before the initiation of the experiment. Upon initiation of the experiment, AR2G tips were equilibrated in water for 1 minute. Then, the tips were moved into an activation solution for 5 minutes. The activation solution consists of 18 parts water, 1 part 400 mM EDC (1-Ethyl-3-[3-dimethylaminopropyl] carbodiimide hydrochloride), and 1 part 200 mM s-NHS (N-hydroxysulfosuccinimide). The activation solution is prepared immediately before use in the experiment. After tip activation, the tips were loaded for 3 minutes with a 10 ug/mL solution of human proTGFβ1 C4S in 10 mM sodium acetate buffer pH 5. After loading, the tips were quenched in ethanolamine pH 8.5 for 15 minutes. The tips were then baseline/blocked with a 20 minute incubation in 1× enhanced kinetics buffer.
row,Binder,koff [s⁻¹]
1,B6,0.00561

# Molecular target: T1, human LTBP3-proTGFβ1 complex
# Experiment: BLI (Octet)
row,Binder,Kd [nM]
1,B2,0.154
2,B3,0.183
3,B4,0.156
4,B5,0.131
5,B6,0.148
6,B7,0.169

# Molecular target: T2, human GARP-proTGFβ1 complex
# Experiment: BLI (Octet)
row,Binder,Kd [nM]
1,B2,0.842
2,B3,7.01
3,B4,11.2
4,B5,0.884
5,B6,0.778
6,B7,7.37

# Molecular target: T3, human LTBP1-proTGFβ1 complex
# Experiment: BLI (Octet)
row,Binder,Kd [nM]
1,B2,0.167
2,B3,0.157
3,B4,0.189
4,B5,0.192
5,B6,0.165
6,B7,0.159

# Molecular target: T4, human LRRC33-proTGFβ1 complex
# Experiment: BLI (Octet)
row,Binder,Kd [nM]
1,B2,0.555
2,B3,0.775
3,B4,0.692
4,B5,0.545
5,B6,0.508
6,B7,0.545

# Molecular target: T6, human proTGFβ1 C4S
# Experiment: BLI (Octet Red384), proTGFβ1 C4S coupled to AR2G sensors, dissociation at pH 7; dissociation at pH 7
# Protocol: as §2, §3
row,Binder,koff [s⁻¹]
1,B6,0.00278

# Molecular target: hGARP-proTGFβ1 complex on cells (human, UniProt Q14392 20-662; P01137 30-390)
# Experiment: cell-based or functional assay
row,Binder,"IC50, reporter cell assay of TGFβ1 activation [nM]"
1,B1,0.822
2,B2,0.79
3,B3,1.08
4,B4,1.34
5,B5,0.387
6,B6,0.776
7,B7,3.71

# Molecular target: hLRRC33-proTGFβ1 complex on cells (human, UniProt Q86YC3 19-692; P01137 30-390)
# Experiment: cell-based or functional assay
# hLRRC33-proTGFβ1 complex on cells, sequence (Q86YC3 19-692 limits assumed, chain 1 of 2): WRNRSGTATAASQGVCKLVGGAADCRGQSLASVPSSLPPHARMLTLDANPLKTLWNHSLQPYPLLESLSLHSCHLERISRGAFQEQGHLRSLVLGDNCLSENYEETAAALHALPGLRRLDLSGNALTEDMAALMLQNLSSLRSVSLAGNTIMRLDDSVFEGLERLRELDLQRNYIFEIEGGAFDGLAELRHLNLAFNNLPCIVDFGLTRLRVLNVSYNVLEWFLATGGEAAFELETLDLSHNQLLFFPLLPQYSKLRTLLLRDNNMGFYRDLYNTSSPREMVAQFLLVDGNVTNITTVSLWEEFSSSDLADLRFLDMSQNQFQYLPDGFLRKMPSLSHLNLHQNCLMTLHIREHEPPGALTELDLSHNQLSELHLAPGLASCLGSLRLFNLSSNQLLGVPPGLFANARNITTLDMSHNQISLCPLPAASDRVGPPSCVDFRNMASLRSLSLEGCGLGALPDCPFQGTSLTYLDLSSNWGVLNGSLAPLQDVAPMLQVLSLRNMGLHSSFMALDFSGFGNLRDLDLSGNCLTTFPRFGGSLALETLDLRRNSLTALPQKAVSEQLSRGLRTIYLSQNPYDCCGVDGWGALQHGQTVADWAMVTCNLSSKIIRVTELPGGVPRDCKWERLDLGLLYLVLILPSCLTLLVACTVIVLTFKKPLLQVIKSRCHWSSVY
# hLRRC33-proTGFβ1 complex on cells, sequence (P01137 30-390 limits assumed, chain 2 of 2): as the sequence (chain, as listed by the source limits assumed, chain 2 of 2) above
row,Binder,"IC50, reporter cell assay of TGFβ1 activation [nM]"
1,B1,3.5
2,B2,1.27
3,B3,2.43
4,B4,0.401
5,B5,1.35
6,B6,1.38
7,B7,5.37

# Molecular target: hLTBP1-proTGFβ1 complex made by transfected cells (cell-based potency assay) (human, UniProt Q14766 347-1721; P01137 30-390)
# Experiment: cell-based or functional assay
row,Binder,"IC50, reporter cell assay of TGFβ1 activation [nM]"
1,B1,5.22
2,B2,2.95
3,B3,3.79
4,B4,1.66
5,B5,1.85
6,B6,3.39
7,B7,6.25

# Molecular target: hLTBP3-proTGFβ1 complex made by transfected cells (cell-based potency assay) (human, UniProt Q9NS15 44-1303; P01137 30-390)
# Experiment: cell-based or functional assay
row,Binder,"IC50, reporter cell assay of TGFβ1 activation [nM]"
1,B1,5.65
2,B2,1.56
3,B3,1.55
4,B4,1.6
5,B5,1.18
6,B6,0.867
7,B7,2.71
